This is an account of results in article PMC7679444.

B1: TMEM59 peptide (residues 268–280), wild type [modified: long spacer (Tds) at the N-terminal end, used for immobilisation; long spacer (Tds) at the N-terminal end, used for immobilisation] [not stated] / GST-HA-ATG16L1(231–607) … (parent)
chain 1: PLPVEQDDDIEVIVDETSDHTEETSPVRAISRAATKRLSQPAGGLLDSITNIFGRRSVSSFPVPQDNVDTHPGSGKEVRVPATALCVFDAHDGEVNAVQFSPGSRLLATGGMDRRVKLWEVFGEKCEFKGSLSGSNAGITSIEFDSAGSYLLAASNDFASRIWTVDDYRLRHTLTGHSGKVLSAKFLLDNARIVSGSHDRTLKLWDLRSKVCIKTVFAGSSCNDIVCTEQCVMSGHFDKKIRFWDIRSESIVREMELLGKITALDLNPERTELLSCSRDDLLKVIDLRTNAIKQTFSAPGFKCGSDWTRVVFSPDGSYVAAGSAEGSLYIWSVLTGKVEKVLSKQHSSSINAVAWSPSGSHVVSVDKGCKAVLWAQY
chain 2: YVPSEKLSIYGDL

This test covers variants of B1. As to the kind of experiment: peptide microarray. Conditions: with GST-HA-ATG16L1(231–607) [human], parent: 100.

Turning to chain 2 D12Y, where the note is “ligand 800, 600, 400 nM”, the percent of parent turned out to be 180 % WT. On to chain 2 D12W, for which the percent of parent (ligand 800, 600, 400 nM) worked out at 177 % WT. Take chain 2 D12V: under “ligand 800, 600, 400 nM”, the percent of parent was 159 % WT.

On to chain 2 D12H, for which, under “ligand 800, 600, 400 nM”, the percent of parent amounted to 179 % WT. Turning to chain 2 D12T, the percent of parent (ligand 800, 600, 400 nM) worked out at 133 % WT. As to chain 2 D12I, the percent of parent (ligand 800, 600, 400 nM) was 129 % WT. As to chain 2 D12P, under “ligand 800, 600, 400 nM”, the percent of parent came to 145 % WT. Same read-out and setting: to chain 2 D12Q belongs 105 % WT; to chain 2 D12K, 191 % WT; to chain 2 D12E, 173 % WT.

chain 2 D12A: where the note is “ligand 800, 600, 400 nM”, the percent of parent was determined as 131 % WT. The same measure, in the same setting: to chain 2 D12R belongs 164 % WT; to chain 2 D12G, 158 % WT; to chain 2 D12L, 110 % WT.

Regarding chain 2 D12F, under “ligand 800, 600, 400 nM”, the percent of parent was 138 % WT. As to chain 2 D12M, under “ligand 800, 600, 400 nM”, the percent of parent is 93 % WT. On to chain 2 D12N, for which, for the setting “ligand 800, 600, 400 nM”, the percent of parent was 128 % WT. Turning to chain 2 D12S, for the setting “ligand 800, 600, 400 nM”, the percent of parent turned out to be 128 % WT. Turning to chain 2 S8F, the percent of parent turned out to be 175 % WT (ligand 200, 50, 20 nM) and 144 % WT (ligand 800, 600, 400 nM). Regarding chain 2 S8K, the percent of parent was 158 % WT (ligand 200, 50, 20 nM) and 144 % WT (ligand 800, 600, 400 nM). Regarding chain 2 S8Q, the percent of parent (ligand 200, 50, 20 nM) is 64 % WT and the percent of parent (ligand 800, 600, 400 nM) was determined as 113 % WT. On to chain 2 S8P, for which the percent of parent runs as follows: (ligand 200, 50, 20 nM) 50 % WT; (ligand 800, 600, 400 nM) 78 % WT. Consider chain 2 S8A, for which the percent of parent is, setting by setting: (ligand 200, 50, 20 nM) 55 % WT; (ligand 800, 600, 400 nM) 59 % WT. In the case of chain 2 S8E, the percent of parent was determined as 6 % WT (ligand 200, 50, 20 nM) and 11 % WT (ligand 800, 600, 400 nM).

In the case of chain 2 S8Y, for the setting “ligand 800, 600, 400 nM”, the percent of parent stood at 137 % WT.

On to chain 2 S8R, for which the percent of parent runs as follows: (ligand 200, 50, 20 nM) 113 % WT; (ligand 800, 600, 400 nM) 115 % WT. As to chain 2 S8M, the percent of parent runs as follows: (ligand 200, 50, 20 nM) 21 % WT; (ligand 800, 600, 400 nM) 27 % WT. With chain 2 S8V, under “ligand 800, 600, 400 nM”, the percent of parent was found to be 60 % WT.

Take chain 2 S8T: the percent of parent (ligand 200, 50, 20 nM) came out at 54 % WT and the percent of parent (ligand 800, 600, 400 nM) was determined as 67 % WT. In the same order, the values of chain 2 S8G are 56 % WT and 57 % WT. In the same order, the values of chain 2 S8N are 126 % WT and 111 % WT. For chain 2 S8D, the percent of parent runs as follows: (ligand 200, 50, 20 nM) 7 % WT; (ligand 800, 600, 400 nM) 9 % WT.

With chain 2 S8L, the percent of parent reads like this: (ligand 200, 50, 20 nM) 56 % WT; (ligand 800, 600, 400 nM) 74 % WT. As to chain 2 S8I, the percent of parent is, setting by setting: (ligand 200, 50, 20 nM) 41 % WT; (ligand 800, 600, 400 nM) 51 % WT. As to chain 2 S8H, the percent of parent was 124 % WT (ligand 200, 50, 20 nM) and 115 % WT (ligand 800, 600, 400 nM). For chain 2 S8W, the percent of parent (ligand 800, 600, 400 nM) amounted to 179 % WT.

Turning to chain 2 K6L, the percent of parent was determined as 35 % WT (ligand 200, 50, 20 nM) and 51 % WT (ligand 800, 600, 400 nM). Regarding chain 2 K6P, the percent of parent (ligand 200, 50, 20 nM) was found to be 7 % WT and the percent of parent (ligand 800, 600, 400 nM) turned out to be 3 % WT. For the variant chain 2 K6R, the percent of parent amounted to 8 % WT (ligand 200, 50, 20 nM) and 11 % WT (ligand 800, 600, 400 nM).

On to chain 2 K6S, for which the percent of parent worked out at 8 % WT (ligand 200, 50, 20 nM) and 11 % WT (ligand 800, 600, 400 nM). In the same order, the values of chain 2 K6G are 6 % WT and 6 % WT. chain 2 K6A: the percent of parent reads like this: (ligand 200, 50, 20 nM) 6 % WT; (ligand 800, 600, 400 nM) 7 % WT. Taken in the same sequence, the figures for chain 2 K6W were 126 % WT and 106 % WT. Consider chain 2 K6Q, for which the percent of parent runs as follows: (ligand 200, 50, 20 nM) 3 % WT; (ligand 800, 600, 400 nM) 4 % WT. chain 2 K6V: the percent of parent is, setting by setting: (ligand 200, 50, 20 nM) 50 % WT; (ligand 800, 600, 400 nM) 56 % WT. For chain 2 K6H, the percent of parent (ligand 200, 50, 20 nM) was 28 % WT and the percent of parent (ligand 800, 600, 400 nM) is 21 % WT. On to chain 2 K6Y, for which the percent of parent runs as follows: (ligand 200, 50, 20 nM) 105 % WT; (ligand 800, 600, 400 nM) 74 % WT. In the case of chain 2 K6T, the percent of parent (ligand 200, 50, 20 nM) came to 7 % WT and the percent of parent (ligand 800, 600, 400 nM) was determined as 12 % WT. As for chain 2 K6I, the percent of parent (ligand 200, 50, 20 nM) worked out at 53 % WT and the percent of parent (ligand 800, 600, 400 nM) was 61 % WT. For the variant chain 2 K6D, the percent of parent is 7 % WT (ligand 200, 50, 20 nM) and 6 % WT (ligand 800, 600, 400 nM). Turning to chain 2 K6E, the percent of parent is 2 % WT (ligand 200, 50, 20 nM) and 3 % WT (ligand 800, 600, 400 nM). Take chain 2 K6M: the percent of parent is, setting by setting: (ligand 200, 50, 20 nM) 7 % WT; (ligand 800, 600, 400 nM) 10 % WT. With chain 2 K6N, the percent of parent reads like this: (ligand 200, 50, 20 nM) 4 % WT; (ligand 800, 600, 400 nM) 2 % WT. Regarding chain 2 K6F, the percent of parent by setting is: (ligand 200, 50, 20 nM) 96 % WT; (ligand 800, 600, 400 nM) 114 % WT. As to chain 2 G11A, the percent of parent (ligand 800, 600, 400 nM) came out at 18 % WT. As to chain 2 G11L, where the note is “ligand 800, 600, 400 nM”, the percent of parent was 17 % WT.

In the case of chain 2 G11Y, the percent of parent (ligand 800, 600, 400 nM) turned out to be 150 % WT. Turning to chain 2 G11S, the percent of parent (ligand 800, 600, 400 nM) turned out to be 103 % WT. For chain 2 G11K, the percent of parent (ligand 800, 600, 400 nM) is 127 % WT. Same read-out and setting: to chain 2 G11F belongs 43 % WT.
